Measured values published in patent US10967068B2, “Stability-modulating linkers for use with antibody drug conjugates” (priority 2014, dated 2021).
*1 amine or outer side, *2 acyl side, *3 side chain or, on linkers, in order; H or OH if unused. Where a SMILES comes first, the peptide text is derived from it. [ ]: non-standard residue; d: D form. The star is where a group is joined. Dolaproine = CO[C@@H]([C@@H]1CCCN1)[C@@H](C)C(=O)O; Dil = CC[C@H](C)[C@H](NC)[C@@H](CC(=O)O)OC; PABC = O=C(OCc1ccc(N[*:1])cc1)[*:2]; Doe = c1ccc(C[C@H](N*)c2nccs2)cc1; Cit = NC(=O)NCCC[C@H](N)C(=O)O; Aib = CC(C)(N)C(=O)O; X2 = CC1(C(=O)*)COC1; Moc = COC(=O)*

Assay: In Vitro Stability Assay—Mouse Plasma
Assay type: in vitro ADME
Conditions: attachment position L11B; for Conjugate stability (%): % DAR remaining after plasma 3 or 4.5 days; for DAR: before plasma incubation
Protocol: 100-200 ug of ADC were incubated in mouse plasma (provided by Bioreclamation) supplemented with 1×PBS to the final ADC concentration of 0.125 mg/mL. Following incubation for 3-7 days, samples were diluted with an equal volume of 1×PBS, and ADCs were isolated using Trop2 antigen coupled to CNBr-activated Sepharose (GE Healthcare) using standard protocols. Drug-antibody ratios were assessed before and after in vitro exposure using HIC methods and mass spectrometry.
DAR values for conjugates purified after plasma incubation were compared to DAR values prior to plasma treatment.

Structure (SMILES) | DAR after plasma incubation for 3 to 4.5 days | Conjugate stability (%) | DAR
CC[C@H](C)[C@@H]([C@@H](CC(=O)N1CCC[C@H]1[C@H](OC)[C@@H](C)C(=O)N[C@@H](Cc1ccccc1)c1nccs1)OC)N(C)C(=O)[C@@H](NC(=O)C(C)(C)NC(=O)OCc1ccc(NC(=O)[C@H](CCCNC(N)=O)NC(=O)[C@@H](NC(=O)[C@H](CCCCN)NC(=O)CN)C(C)C)cc1)C(C)C [Example 29, glycyl-L-lysylvalyl-N-{4-[(8S,11S,12R)-11-[(2S)-butan-2-yl]-12-(2-{(2S)-2-[(1R,2R)-1-methoxy-2-methyl-3-oxo-3-{[(1S)-2-phenyl-1-(1,3-thiazol-2-yl)ethyl]amino}propyl]pyrrolidin-1-yl}-2-oxoethyl)-5,5,10-trimethyl-3,6,9-trioxo-8-(propan-2-yl)-2,13-dioxa-4,7,10-triazatetradec-1-yl]phenyl}-N˜5˜-carbamoyl-L-ornithinamide] (H-GKV[Cit][PABC][Aib]V[Dil][Dolaproine]-Doe) | 1.46 | 81 | 1.80
CC[C@H](C)[C@@H]([C@@H](CC(=O)N1CCC[C@H]1[C@H](OC)[C@@H](C)C(=O)N[C@@H](Cc1ccccc1)c1nccs1)OC)N(C)C(=O)[C@@H](NC(=O)C(C)(C)NC(=O)OCc1ccc(NC(=O)[C@H](CCCNC(N)=O)NC(=O)[C@@H](NC(=O)[C@H](CCCCN)NC(=O)C2(C)COC2)C(C)C)cc1)C(C)C [Example 30, N˜2˜-[(3-methyloxetan-3-yl)carbonyl]-L-lysyl-L-valyl-N-{4-[(8S,11S,12R)-11-[(2S)-butan-2-yl]-12-(2-{(2S)-2-[(1R,2R)-1-methoxy-2-methyl-3-oxo-3-{[(1S)-2-phenyl-1-(1,3-thiazol-2-yl)ethyl]amino}propyl]pyrrolidin-1-yl}-2-oxoethyl)-5,5,10-trimethyl-3,6,9-trioxo-8-(propan-2-yl)-2,13-dioxa-4,7,10-triazatetradec-1-yl]phenyl}-N˜5˜-carbamoyl-L-ornithinamide] (X2-KV[Cit][PABC][Aib]V[Dil][Dolaproine]-Doe) | 0.06 | 5 | 1.27
CC[C@H](C)[C@@H]([C@@H](CC(=O)N1CCC[C@H]1[C@H](OC)[C@@H](C)C(=O)N[C@@H](Cc1ccccc1)c1nccs1)OC)N(C)C(=O)[C@@H](NC(=O)C(C)(C)NC(=O)OCc1ccc(NC(=O)[C@H](CCCNC(N)=O)NC(=O)[C@@H](NC(=O)[C@H](CCCCN)NC(=O)C(C)(C)N)C(C)C)cc1)C(C)C [Example 31, 2-methylalanyl-L-lysylvalyl-N-{4-[(8S,11S,12R)-11-[(2S)-butan-2-yl]-12-(2-{(2S)-2-[(1R,2R)-1-methoxy-2-methyl-3-oxo-3-{[(1S)-2-phenyl-1-(1,3-thiazol-2-yl)ethyl]amino}propyl]pyrrolidin-1-yl}-2-oxoethyl)-5,5,10-trimethyl-3,6,9-trioxo-8-(propan-2-yl)-2,13-dioxa-4,7,10-triazatetradec-1-yl]phenyl}-N˜5˜-carbamoyl-L-ornithinamide] (H-[Aib]KV[Cit][PABC][Aib]V[Dil][Dolaproine]-Doe) | 0.03 | 2 | 1.77
CC[C@H](C)[C@@H]([C@@H](CC(=O)N1CCC[C@H]1[C@H](OC)[C@@H](C)C(=O)N[C@@H](Cc1ccccc1)c1nccs1)OC)N(C)C(=O)[C@@H](NC(=O)C(C)(C)NC(=O)OCc1ccc(NC(=O)[C@H](CCCNC(N)=O)NC(=O)[C@@H](NC(=O)[C@H](CCCCN)NC(=O)OC)C(C)C)cc1)C(C)C [Example 32, N˜2˜-(methoxycarbonyl)-L-lysylvalyl-N-{4-[(8S,11S,12R)-11-[(2S)-butan-2-yl]-12-(2-{(2S)-2-[(1R,2R)-1-methoxy-2-methyl-3-oxo-3-{[(1S)-2-phenyl-1-(1,3-thiazol-2-yl)ethyl]amino}propyl]pyrrolidin-1-yl}-2-oxoethyl)-5,5,10-trimethyl-3,6,9-trioxo-8-(propan-2-yl)-2,13-dioxa-4,7,10-triazatetradec-1-yl]phenyl}-N˜5˜-carbamoyl-L-ornithinamide] (Moc-KV[Cit][PABC][Aib]V[Dil][Dolaproine]-Doe) | 0.08 | 5 | 1.53
CC[C@H](C)[C@@H]([C@@H](CC(=O)N1CCC[C@H]1[C@H](OC)[C@@H](C)C(=O)N[C@@H](Cc1ccccc1)c1nccs1)OC)N(C)C(=O)[C@@H](NC(=O)C(C)(C)NC(=O)OCc1ccc(NC(=O)[C@H](CCCNC(N)=O)NC(=O)[C@@H](NC(=O)[C@@H](N)CCCCN)C(C)C)cc1)C(C)C [Example 33, L-lysylvalyl-N-{4-[(8S,11S,12R)-11-[(2S)-butan-2-yl]-12-(2-{(2S)-2-[(1R,2R)-1-methoxy-2-methyl-3-oxo-3-{[(1S)-2-phenyl-1-(1,3-thiazol-2-yl)ethyl]amino}propyl]pyrrolidin-1-yl}-2-oxoethyl)-5,5,10-trimethyl-3,6,9-trioxo-8-(propan-2-yl)-2,13-dioxa-4,7,10-triazatetradec-1-yl]phenyl}-N˜5˜-carbamoyl-L-ornithinamide] (H-KV[Cit][PABC][Aib]V[Dil][Dolaproine]-Doe) | 0.52 | 34 | 1.53
CC[C@H](C)[C@@H]([C@@H](CC(=O)N1CCC[C@H]1[C@H](OC)[C@@H](C)C(=O)N[C@@H](Cc1ccccc1)c1nccs1)OC)N(C)C(=O)[C@@H](NC(=O)C(C)(C)NC(=O)OCc1ccc(NC(=O)[C@H](CCCNC(N)=O)NC(=O)[C@@H](NC(=O)[C@H](CCCCN)NC(=O)[C@H](C)N)C(C)C)cc1)C(C)C [Example 34, L-alanyl-L-lysylvalyl-N-{4-[(8S,11S,12R)-11-[(2S)-butan-2-yl]-12-(2-{(2S)-2-[(1R,2R)-1-methoxy-2-methyl-3-oxo-3-{[(1S)-2-phenyl-1-(1,3-thiazol-2-yl)ethyl]amino}propyl]pyrrolidin-1-yl}-2-oxoethyl)-5,5,10-trimethyl-3,6,9-trioxo-8-(propan-2-yl)-2,13-dioxa-4,7,10-triazatetradec-1-yl]phenyl}-N˜5˜-carbamoyl-L-ornithinamide] (H-AKV[Cit][PABC][Aib]V[Dil][Dolaproine]-Doe) | 0.86 | 50 | 1.72
CC[C@H](C)[C@@H]([C@@H](CC(=O)N1CCC[C@H]1[C@H](OC)[C@@H](C)C(=O)N[C@@H](Cc1ccccc1)c1nccs1)OC)N(C)C(=O)[C@@H](NC(=O)C(C)(C)NC(=O)OCc1ccc(NC(=O)[C@H](CCCNC(N)=O)NC(=O)[C@@H](NC(=O)[C@H](CCCCN)NC(=O)[C@@H](C)N)C(C)C)cc1)C(C)C [Example 35, D-alanyl-L-lysylvalyl-N-{4-[(8S,11S,12R)-11-[(2S)-butan-2-yl]-12-(2-{(2S)-2-[(1R,2R)-1-methoxy-2-methyl-3-oxo-3-{[(1S)-2-phenyl-1-(1,3-thiazol-2-yl)ethyl]amino}propyl]pyrrolidin-1-yl}-2-oxoethyl)-5,5,10-trimethyl-3,6,9-trioxo-8-(propan-2-yl)-2,13-dioxa-4,7,10-triazatetradec-1-yl]phenyl}-N˜5˜-carbamoyl-L-ornithinamide] (H-[dA]KV[Cit][PABC][Aib]V[Dil][Dolaproine]-Doe) | 1.07 | 58 | 1.82
